Blank lines part the entries; values can stand above or below the binder they belong to.
B2: strep-tagged-SpoIIEcyt (cytoplasmic part of SpoIIE, MBP removed) (domain or fragment, B. subtilis 168, UniProt P37475 326-827, looked up)
chain: RKVARYIPGTVEHLQEQQQYARKIRDVTAQKVDQFSNVFHALSESFATFYQASDEQTDDSEVDLFLSKITEHSCQTCYKKNRCWVQNFDKTYDLMKQVMLETEEKEYASNRRLKKEFQQYCSKSKQVEELIEDELAHHHAHLTLKKKVQDSRRLVAEQLLGVSEVMADFSREIKREREQHFLQEEQIIEALQHFGIEIQHVEIYSLEQGNIDIEMTIPFSGHGESEKIIAPMLSDILEEQILVKAEQHSPHPNGYSHVAFGSTKSYRVSTGAAHAAKGGGLVSGDSYSMMELGARKYAAAISDGMGNGARAHFESNETIKLLEKILESGIDEKIAIKTINSILSLRTTDEIYSTLDLSIIDLQDASCKFLKVGSTPSFIKRGDQVMKVQASNLPIGIINEFDVEVVSEQLKAGDLLIMMSDGIFEGPKHVENHDLWMKRKMKGLKTNDPQEIADLLMEEVIRTRSGQIEDDMTVVVVRIDHNTPKWASIPVPAIFQNKQEIS
notes: SpoIIE of Bacillus subtilis 168, domains II and III (cytoplasmic part), amino acids 326-827; called a 501 residue fragment; also called s-SpoIIEcyt; strep-SpoIIEcyt; not shown: MBP, N-terminal, cleaved; strep-tag, N-terminal, kept

Key:
[1] = biological target: the molecule itself; experiment: co-sedimentation; 10 μM ms-SpoIIEcyt in 50 mM MES/NaOH pH 6.5, 50 mM KCl; after 1 mM EDTA, 5 mM MnCl2 added for 30 min; spun at 186,000 x g, supernatant and pellet on SDS-PAGE
[2] = biological target: the molecule itself; experiment: transmission electron microscopy; 10 μM FtsZ with or without 1.5 μM s-SpoIIEcyt, or 1.5 μM s-SpoIIEcyt alone with 10 mM MnCl2, in 50 mM Tris/HCl pH 7.5, 300 mM KCl with 1 mM EDTA or 10 mM MgCl2 or 10 mM MnCl2; GTP or GDP; samples taken after 30 min at 30°C
[3] = biological target: B2; experiment: 90° light scattering; 10 μM FtsZ and/or 1.5 μM s-SpoIIEcyt in 50 mM Tris/HCl pH 7.5, 300 mM KCl, 10 mM MgCl2; 2 mM GTP or GDP added after 90 s; 30°C; controls of FtsZ alone with Mn2+ or EDTA; conditions: both partners purified
[4] = biological target: the molecule itself; experiment: as above

B1: MBP-strep-tag-SpoIIEcyt fusion protein (cytoplasmic part of SpoIIE, domains II and III) (domain or fragment, B. subtilis 168, UniProt P37475 326-827, looked up)
chain: RKVARYIPGTVEHLQEQQQYARKIRDVTAQKVDQFSNVFHALSESFATFYQASDEQTDDSEVDLFLSKITEHSCQTCYKKNRCWVQNFDKTYDLMKQVMLETEEKEYASNRRLKKEFQQYCSKSKQVEELIEDELAHHHAHLTLKKKVQDSRRLVAEQLLGVSEVMADFSREIKREREQHFLQEEQIIEALQHFGIEIQHVEIYSLEQGNIDIEMTIPFSGHGESEKIIAPMLSDILEEQILVKAEQHSPHPNGYSHVAFGSTKSYRVSTGAAHAAKGGGLVSGDSYSMMELGARKYAAAISDGMGNGARAHFESNETIKLLEKILESGIDEKIAIKTINSILSLRTTDEIYSTLDLSIIDLQDASCKFLKVGSTPSFIKRGDQVMKVQASNLPIGIINEFDVEVVSEQLKAGDLLIMMSDGIFEGPKHVENHDLWMKRKMKGLKTNDPQEIADLLMEEVIRTRSGQIEDDMTVVVVRIDHNTPKWASIPVPAIFQNKQEIS
notes: SpoIIE of Bacillus subtilis 168, domains II and III (cytoplasmic part), amino acids 326-827; called a 501 residue fragment; Order on the chain: MBP (from pMalC2x), short strep-tag, SpoIIE 326-827; Co-purifies with about 2 Fe per protein; also called ms-SpoIIEcyt; source: E. coli BL21-RIL, purified (amylose resin, eluted with maltose); not shown: MBP, N-terminal, kept; strep-tag, N-terminal, kept
binding result [1]: binds

Binder: B2
binding result [2]: binds

binding result [3]: binds
B3: FtsZ (natural protein, B. subtilis, UniProt P17865 1-382, looked up)
chain: MLEFETNIDGLASIKVIGVGGGGNNAVNRMIENEVQGVEYIAVNTDAQALNLSKAEVKMQIGAKLTRGLGAGANPEVGKKAAEESKEQIEEALKGADMVFVTAGMGGGTGTGAAPVIAQIAKDLGALTVGVVTRPFTFEGRKRQLQAAGGISAMKEAVDTLIVIPNDRILEIVDKNTPMLEAFREADNVLRQGVQGISDLIATPGLINLDFADVKTIMSNKGSALMGIGIATGENRAAEAAKKAISSPLLEAAIDGAQGVLMNITGGTNLSLYEVQEAADIVASASDQDVNMIFGSVINENLKDEIVVTVIATGFIEQEKDVTKPQRPSLNQSIKTHNQSVPKREPKREEPQQQNTVSRHTSQPADDTLDIPTFLRNRNKRG
notes: Cell division protein FtsZ of Bacillus subtilis; source: purified as described [25], > 95% purity
binding result [4]: binds
